{"source": "IntAct's records for PubMed 28424519", "parents": {"B1": {"name": "Transcription regulatory protein SNF2 (Saccharomyces cerevisiae), P22082 (parent)", "chain": "MNIPQRQFSNEEVNRCYLRWQHLRNEHGMNAPSVPEFIYLTKVLQFAAKQRQELQMQRQQQGISGSQQNIVPNSSDQAELPNNASSHISASASPHLAPNMQLNGNETFSTSAHQSPIMQTQMPLNSNGGNNMLPQRQSSVGSLNATNFSPTPANNGENAAEKPDNSNHNNLNLNNSELQPQNRSLQEHNIQDSNVMPGSQINSPMPQQAQMQQAQFQAQQAQQAQQAQQAQQAQARLQQGRRLPMTMFTAEQSELLKAQITSLKCLVNRKPIPFEFQAVIQKSINHPPDFKRMLLSLSEFARRRQPTDQNNQSNLNGGNNTQQPGTNSHYNNTNTDNVSGLTRNAPLDSKDENFASVSPAGPSSVHNAKNGTLDKNSQTVSGTPITQTESKKEENETISNVAKTAPNSNKTHTEQNNPPKPQKPVPLNVLQDQYKEGIKVVDIDDPDMMVDSFTMPNISHSNIDYQTLLANSDHAKFTIEPGVLPVGIDTHTATDIYQTLIALNLDTTVNDCLDKLLNDECTESTRENALYDYYALQLLPLQKAVRGHVLQFEWHQNSLLTNTHPNFLSKIRNINVQDALLTNQLYKNHELLKLERKKTEAVARLKSMNKSAINQYNRRQDKKNKRLKFGHRLIATHTNLERDEQKRAEKKAKERLQALKANDEEAYIKLLDQTKDTRITHLLRQTNAFLDSLTRAVKDQQKYTKEMIDSHIKEASEEVDDLSMVPKMKDEEYDDDDDNSNVDYYNVAHRIKEDIKKQPSILVGGTLKDYQIKGLQWMVSLFNNHLNGILADEMGLGKTIQTISLLTYLYEMKNIRGPYLVIVPLSTLSNWSSEFAKWAPTLRTISFKGSPNERKAKQAKIRAGEFDVVLTTFEYIIKERALLSKVKWVHMIIDEGHRMKNAQSKLSLTLNTHYHADYRLILTGTPLQNNLPELWALLNFVLPKIFNSVKSFDEWFNTPFANTGGQDKIELSEEETLLVIRRLHKVLRPFLLRRLKKDVEKELPDKVEKVVKCKMSALQQIMYQQMLKYRRLFIGDQNNKKMVGLRGFNNQIMQLKKICNHPFVFEEVEDQINPTRETNDDIWRVAGKFELLDRILPKLKATGHRVLIFFQMTQIMDIMEDFLRYINIKYLRLDGHTKSDERSELLRLFNAPDSEYLCFILSTRAGGLGLNLQTADTVIIFDTDWNPHQDLQAQDRAHRIGQKNEVRILRLITTNSVEEVILERAYKKLDIDGKVIQAGKFDNKSTSEEQEALLRSLLDAEEERRKKRESGVEEEEELKDSEINEILARNDEEMAVLTRMDEDRSKKEEELGVKSRLLEKSELPDIYSRDIGAELKREESESAAVYNGRGARERKTATYNDNMSEEQWLRQFEVSDDEKNDKQARKQRTKKEDKSEAIDGNGEIKGENIDADNDGPRINNISAEDRADTDLAMNDDDFLSKKRKAGRPRGRPKKVKLEGSENSEPPALESSPVTGDNSPSEDFMDIPKPRTAGKTSVKSARTSTRGRGRGRGRGRGRGRGRGRPPKARNGLDYVRTPAAATSPIDIREKVAKQALDLYHFALNYENEAGRKLSDIFLSKPSKALYPDYYMIIKYPVAFDNINTHIETLAYNSLKETLQDFHLIFSNARIYNTEGSVVYEDSLELEKVVTKKYCEIMGDNSQLDFTEFDEQYGTRPLVLPPVVTSSVAESFTDEADSSMTEASV"}}, "data": [{"variants_of": "B1", "details": "with h4_yeast HHF1, P02309", "values": [{"variant": "E1069K;D1121K", "effect of a mutation on the interaction": "disrupting interaction"}]}]}
